The values that follow come from the supplement of paper PMC12042874.

± gives the uncertainty stated by the source.

A short description of this series: amyloid nucleation score (Sup35N fusion, yeast selection) (log enrichment); library NNK1; higher = more nucleation; inactive = no reads after selection. The method, boiled down: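 In psi-negative yeast, Sup35N fusions carrying peptides of 20 random codons were induced with 100 μM copper sulfate for 24 hours. The cells then grew 7 days at 30°C on medium lacking adenine and uracil, and plasmid inserts from input and output were Illumina-sequenced, excluding sequences with under 100 input reads. Nucleation score is the DiMSum log enrichment of output over input reads, centred on the mode score of non-aggregating sequences.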
SPFASVEEFELL yielded an amyloid nucleation score of 0.124 ± 0.33.

SWNLGADIAMDDHVESV: the amyloid nucleation score amounted to 0.601 ± 0.39.

In turn, THSSGINVTPPDVCSLITLT showed an amyloid nucleation score of -0.159 ± 1.2.

For the substance FSSNLLECRCLWKTQASNST, the amyloid nucleation score was 0.271 ± 0.33.

As for YWGARNCLLYWWYGLTTEGS, the amyloid nucleation score stood at 0.028 ± 0.44.

NGSYCKQILSRYVCRGECLH had an amyloid nucleation score of -1.85 ± 1.4.

With RNINLANHGCSSISLVYLPS, the amyloid nucleation score turned out to be 2.8 ± 0.21.

With MPKCSTLNTKVFRPMVWFSV, the amyloid nucleation score turned out to be 1.43 ± 0.29.

RNQDLLHFLVVGIAVKKYNY yielded an amyloid nucleation score of -0.598 ± 0.35.

Substance HNQCHVKYDYHYL gave an amyloid nucleation score of -0.183 ± 0.78.

Regarding SFFDLSEA, the amyloid nucleation score is 0.918 ± 1.1.

For YLLCFWILCFTAVGIFTGFN, the amyloid nucleation score turned out to be 0.456 ± 0.25.

In turn, RVSKYQYCIMYWRYRAI came in with an amyloid nucleation score of 0.442 ± 0.56.

For DYDGWQLPMCNNITMTWKVC, the amyloid nucleation score stood at 2.7 ± 0.12.

GLSWGIFALDTRSPGILRSV: the amyloid nucleation score is -0.436 ± 0.35.

TDADYTPHVQSVPYYAHLII yielded an amyloid nucleation score of 3.88 ± 0.14.

Substance TFSLCKWVHSANKGLVQMTF yielded an amyloid nucleation score of 0.265 ± 0.41.

For the substance RGVYNDSMERMPDNCSFYNK, the amyloid nucleation score was -0.641 ± 1.5.

RRSQGAYLLNDGVRGIL: the amyloid nucleation score was -0.057 ± 0.28.

IQGGKNYRKQDHTRHVTTGT returned an amyloid nucleation score of -1.37 ± 2.4.

Consider RKEISGLMVLLEANLVTWFV, for which the amyloid nucleation score was -0.085 ± 0.3.

ERMGDSQGPKAGLWSFKYP registered an amyloid nucleation score of -0.226 ± 0.97.

For the substance SPIVGTLFYFMLWNMSAHTR, the amyloid nucleation score came to 1.96 ± 0.26.

VSYYCAQALVLRIPEEWATE: the amyloid nucleation score is -0.168 ± 1.3.

Regarding NNFSSNWWLELWYRYFVYPI, the amyloid nucleation score was determined as 0.666 ± 0.75.

In turn, FRELVDERLRRASQFHWFHF had an amyloid nucleation score of 0.557 ± 0.8.

The substance LTVLACPRYSS returned an amyloid nucleation score of 0.525 ± 0.87.

Consider IYFGSCSRLWPHHVNT, for which the amyloid nucleation score came out at 0.436 ± 0.73.

In turn, IGGRGVLKSVSTLTCVLWTW gave an amyloid nucleation score of 0.473 ± 0.92.

As to KDLEPVSARMFLLLLICLA, the amyloid nucleation score was 0.057 ± 0.52.

Regarding YPGFVCKVWIVVARKSFELE, the amyloid nucleation score entry is “inactive”.

Take VGSRLQRHGDGTGSLGLSWC: the amyloid nucleation score entry was “inactive”.

For VQISQETFYNWLFVPAVSVP, the amyloid nucleation score is -0.282 ± 0.38.

YRLCSMSMRCGLRSIFSNRL returned an amyloid nucleation score of 0.606 ± 0.57.

As to SLDRYIREHK, the amyloid nucleation score amounted to 0.635 ± 0.84.

For QAFISFVVSFRWHLTCRS, the amyloid nucleation score is 1.18 ± 0.64.

On to NGYEMVQVLTSFMAAMGVFW, for which the amyloid nucleation score was 0.256 ± 0.84.

For the substance DSSHVRLWQYWIMWMLVVNA, the amyloid nucleation score was found to be 1.06 ± 0.39.

GYWGPVFSGRCIPVNNK had an amyloid nucleation score of -0.186 ± 1.5.

Substance VIKFWSQ showed an amyloid nucleation score of 0.536 ± 0.77.

Regarding HFNYNNTSMFSLTHSWHGIM, the amyloid nucleation score was 4.71 ± 0.089.

As for SCNDTI, the amyloid nucleation score is -0.172 ± 1.5.

DYAGWPYLPSMHQATLQDAR registered an amyloid nucleation score of 0.275 ± 1.2.

Take CSKFLVVVSVYFLVYSVEHM: the amyloid nucleation score was -0.94 ± 1.6.

In the case of YSSSPVFGCEAPGDYQLGY, the amyloid nucleation score stood at 1.24 ± 0.76.

Substance QTHEYGLPRMIR returned an amyloid nucleation score of 0.884 ± 0.69.

For GDIRGQMCMWYLW, the amyloid nucleation score is -1.73 ± 2.7.

Take YRGVQCFKATKNARVLLWVV: the amyloid nucleation score is -0.051 ± 0.52.

As for LVMLRCAMTLCSIMLNYTPR, the amyloid nucleation score came out at 0.89 ± 0.39.

MTMAFRKLFSVVRILMNMRL: the amyloid nucleation score is 0.059 ± 0.3.

FPMWYYH showed an amyloid nucleation score of -0.366 ± 0.74.

Turning to ISYGKDNESGCLLHYFHAWV, the amyloid nucleation score entry was “inactive”.

With AAWDLVVGQ, the amyloid nucleation score was -0.473 ± 0.32.

For the substance NWGAISISDRGPQKTDTAWT, the amyloid nucleation score is -0.048 ± 0.48.

With VVSMSQEVEAPRAPHMAAFK, the amyloid nucleation score worked out at 0.25 ± 0.53.

Turning to SAKGIME, the amyloid nucleation score turned out to be 1.03 ± 0.45.

On to LYCSNLILVWLFCRSDISVR, for which the amyloid nucleation score worked out at 5.17 ± 0.056.

Turning to VCTCIFRFQFLILCVRVCEL, the amyloid nucleation score was found to be 0.293 ± 0.85.

WNQIAYNYRMLMLYFVTHYW returned an amyloid nucleation score of 0.327 ± 0.5.

In the case of WVHVCGGHCNWLICSMASNG, the amyloid nucleation score was 7.889 ± 0.061.

LLHGGY: the amyloid nucleation score is -1.86 ± 2.4.

Regarding ECSRGVVIIWDMHVGGIDEC, the amyloid nucleation score worked out at 1.79 ± 0.41.

GSRSLLQR yielded an amyloid nucleation score of -1.06 ± 1.2.

The substance YAINMVYYV gave an amyloid nucleation score of 1.16 ± 0.29.

In the case of TVGSIQKAEYWIHGYMATVN, the amyloid nucleation score is 0.169 ± 0.29.

The substance RSVFEKNWVGCITEMTIWFA showed an amyloid nucleation score of -0.47 ± 0.73.

Take CVDCALQFLGCRVGALLTRG: the amyloid nucleation score is -0.875 ± 1.7.

As for FLACGYMFGFRQSYHRPFRF, the amyloid nucleation score turned out to be 3.35 ± 0.095.

Take YREDKHCIHCWGVMGV: the amyloid nucleation score was -2.16 ± 2.4.

Regarding DYYYSFMKTANR, the amyloid nucleation score is -0.087 ± 0.3.

With LGDVSRYFCCIQGNNYRM, the amyloid nucleation score is 5.51 ± 0.057.

VKYLVIL displayed an amyloid nucleation score of -0.618 ± 0.47.

Substance RRSISWNIRSEDLR gave an amyloid nucleation score of 0.85 ± 0.48.

Turning to HLKHVWSYLPSSNVEEMQ, the amyloid nucleation score was 0.766 ± 0.63.

For KDHNVGMYLAGENCHLG, the amyloid nucleation score was 0.915 ± 0.9.

For the substance WRGGKRHVAIFSISYSGTN, the amyloid nucleation score was found to be 0.9 ± 0.57.

Turning to WLSGYKSQMVK, the amyloid nucleation score was -0.291 ± 0.78.

IRSSFMLRCIVSYVPCNTGL returned an amyloid nucleation score of -0.027 ± 1.1.

Take LMFSIFTYNFGKNWSSKSLG: the amyloid nucleation score was determined as 0.303 ± 0.52.

The substance RLDYFLCITYMIDQDRWRIT yielded an amyloid nucleation score of -0.254 ± 1.1.

LMVGVSRGSGWRCGPLGEGA returned an amyloid nucleation score of 0.035 ± 0.37.

In turn, SASEIPALSTTGSNGMDEVI had an amyloid nucleation score of -0.249 ± 0.54.

In turn, WTFGLGSGVSGVSLERGPLG came in with an amyloid nucleation score of -0.622 ± 1.7.

In turn, VWFCIYAFVHSYGLYVVSMV registered an amyloid nucleation score of -0.03 ± 0.31.

Consider TFLTCYRPGPIDNSWRIVSM, for which the amyloid nucleation score was 1.1 ± 0.41.

As for SDPYDPRIVVVRIKLLLVME, the amyloid nucleation score was -0.153 ± 1.4.

Turning to GVKFNSDMSCQFRRVLVEIA, the amyloid nucleation score is -0.057 ± 1.7.

Substance VIQRTYCGRVLNLHALI gave an amyloid nucleation score of 0.245 ± 0.57.

In turn, HGRLTYSDVVNVRTFPGLMK displayed an amyloid nucleation score of -0.232 ± 0.25.

Substance SVTWFIYAWWFLGGSL had an amyloid nucleation score of -0.921 ± 2.4.

For the substance WAIFLVR, the amyloid nucleation score was -2.31 ± 2.4.

The substance RIEHISQRQCMTFSIVTVVN came in with an amyloid nucleation score of -0.49 ± 1.1.

NPGEWYNSYRSNGEGMRLYE had an amyloid nucleation score of -0.288 ± 0.88.

Substance ELSDTVFRRVCNLIVMVTPV came in with an amyloid nucleation score of 1.05 ± 0.4.

In the case of NDDRFSLLCGRGRSGLSEWC, the amyloid nucleation score entry is “inactive”.

Consider KTRNCTNFWLQRGTW, for which the amyloid nucleation score was -0.28 ± 0.76.

The substance YLDSSFFCFLVAIKMDDARH registered an amyloid nucleation score of 6.08 ± 0.087.

YLSMFVWTGGNM showed an amyloid nucleation score of 2.08 ± 0.31.

As for DSEDSNLSCLLYTQC, the amyloid nucleation score came to 0.153 ± 0.16.

As to NSVISMAPYLFTCIENVKSK, the amyloid nucleation score was determined as 0.315 ± 0.42.

Consider LFAPPYLLAVMEE, for which the amyloid nucleation score was 0.97 ± 0.72.

Take THMGRTLSCFGMMSWSSDVA: the amyloid nucleation score came out at 5.88 ± 0.065.

PCWWQFY: the amyloid nucleation score was 0.167 ± 0.64.

As for TLCQNSGKFCMYTWLSVYVD, the amyloid nucleation score came to 0.423 ± 0.26.

For the substance QNRSHKPEFGRMPASQPVTN, the amyloid nucleation score was found to be 0.447 ± 0.63.

On to RCGCERTYSFR, for which the amyloid nucleation score is -0.027 ± 0.72.

In the case of VFTIWSMFFIVRFNLWWKCA, the amyloid nucleation score came to 0.081 ± 0.49.

YFISVVFASGKGW registered an amyloid nucleation score of -0.387 ± 0.8.

SALYNAGCKLCLFTS had an amyloid nucleation score of 0.004 ± 1.1.

FKLMWNFQDLLVLLLRDRRY showed an amyloid nucleation score of 0.048 ± 0.62.

For GVGIFAIYWFTMPHVRPRVI, the amyloid nucleation score was -1.13 ± 1.

Substance GSELGIKRTLSLFICLWIIG came in with an amyloid nucleation score of -0.731 ± 0.36.

Substance QRILTSYGRDMLTSLLRSMP had an amyloid nucleation score of 1.01 ± 0.58.

In turn, VVRPAPRDKPTGPSLCLWGN showed an amyloid nucleation score of 0.086 ± 0.42.

The substance HWLPHDVLSMWW came in with an amyloid nucleation score of 1.29 ± 0.67.

As to TNRPLVLTDNVNKSLKMRLP, the amyloid nucleation score is 0.638 ± 0.27.

VRMDHIRTKPPLHAIVAPQP came in with an amyloid nucleation score of -1.68 ± 2.4.

In turn, RTMKRSLSCVHCLLCLSPCQ gave an amyloid nucleation score of -0.102 ± 0.29.

SIDCLCYYAPRLFRMHVELT: the amyloid nucleation score is -0.656 ± 0.89.

In the case of SGVSVVEGYHRSRVACRSVM, the amyloid nucleation score was -0.158 ± 0.52.

Consider CPRTWFLENNRVTIMHFYRG, for which the amyloid nucleation score amounted to 6.67 ± 0.08.

PLNKSEAESLFKLLTLLDRN yielded an amyloid nucleation score of -1.39 ± 0.46.

LTIRQWRFITAVGDLFLWMR displayed an amyloid nucleation score of 0.331 ± 0.58.

For LNVCSRTPWYKSQSFVDRCV, the amyloid nucleation score was -1.69 ± 2.4.

NMVGFILLGY came in with an amyloid nucleation score of -0.179 ± 0.29.

For RLAFLIDRWVALRNEWRKGV, the amyloid nucleation score was -0.791 ± 0.72.

CNPSG yielded an amyloid nucleation score of 0.819 ± 0.51.

In turn, MLRFRCVRQP gave an amyloid nucleation score of 0.102 ± 0.35.

For the substance WIVCCMWVYVLSLQL, the amyloid nucleation score was -1.06 ± 0.4.

Turning to VLSRSMH, the amyloid nucleation score was -0.206 ± 1.7.

Substance LAWLFYGFEIKL registered an amyloid nucleation score of 0.241 ± 0.9.

GFSMTKCAYTNTH showed an amyloid nucleation score of 1.68 ± 0.17.

Consider SWNFTLLD, for which the amyloid nucleation score entry was “inactive”.

For the substance ITDCPCRGISVCVV, the amyloid nucleation score is -0.288 ± 0.26.

The substance ICVLKKFLVSIQSVIY returned an amyloid nucleation score of 1.46 ± 0.74.

In turn, SSMWFYLRM displayed an amyloid nucleation score of -0.595 ± 1.9.

STLSVLLSWQN had an amyloid nucleation score of 0.01 ± 0.41.

As to FYLLTGLFSQVGTLLFHWSR, the amyloid nucleation score was -0.819 ± 0.51.

Consider LFVGWYYYSVFSFV, for which the amyloid nucleation score result is “inactive”.
